In this assay the target is GILT-tagged GAA ZC-701 (human, UniProt P10253 70-952). The experiment in a line: SPR (Biacore 3000); biotinylated CI-MPR Dom10-13 on SA chip, analyte in solution, steady-state affinity fit, I1572T mutant surface as reference. (In general: Surface plasmon resonance follows binding to a sensor surface in real time, without labels.)

As a reminder, the Kd is the equilibrium constant for the complex coming apart.

Experimental: Following docking of the SA sensor chip, the SA chip was washed two times with deionized water. The flow cells to be coupled were conditioned by injecting 60 ml of a buffer containing 50 mM NaOH/1 M NaCl at a flow rate of 20 ml/min. The chip was washed with H2O as described above. The chip was then washed with coupling buffer (10 mM HEPES pH 7.4/100 mM NaCl) as described above. […] Flow cells (FC) 1 & 2 were coupled at a higher density than FC 3 & 4. FC1 and FC3 were immobilized with the mutant Dom 10-13 construct and were used as the reference surface (i.e., the response obtained from FC1 was subtracted from FC2; the response obtained from FC3 was subtracted from FC4). FC2 and FC4 were immobilized with the wild-type Dom10-13 construct. […] Following the 50 ml injection of coupling buffer containing the Dom10-13 constructs, the chip was washed with coupling buffer alone (10 ml injection at a flow rate of 10 ml/min). Remaining unbound streptavidin binding sites were saturated with biotin by two sequential 10 ml injections of biotin (10 mM) at a flow rate of 10 μl/min.
After coupling, the flow cells were equilibrated in running buffer (10 mM HEPES pH 7.0, 150 mM NaCl, and 0.005% (v/v) surfactant P20).

B1: biotinylated, His-tagged recombinant wild-type CI-MPR domains 10-13 (1288FS) (receptor)
chain: AGAPTGHHHHHHAPGLNDIFEAQKIEWHEPFDLTECSFKDGAGNSFDLSSLSRYSDNWEAITGTGDPEHYLINVCKSLAPQAGTEPCPPEAAACLLGGSKPVNLGRVRDGPQWRDGIIVLKYVDGDLCPDGIRKKSTTIRFTCSESQVNSRPMFISAVEDCEYTFAWPTATACPMKSNEHDDCQVTNPSTGHLFDLSSLSGRAGFTAAYSEKGLVYMSICGENENCPPGVGACFGQTRISVGKANKRLRYVDQVLQLVYKDGSPCPSKSGLSYKSVISFVCRPEAGPTNRPMLISLDKQTCTLFFSWHTPLACEQATECSVRNGSSIVDLSPLIHRTGGYEAYDESEDDASDTNPDFYINICQPLNPMHGVPCPAGAAVCKVPIDGPPIDIGRVAGPPILNPIANEIYLNFESSTPCLADKHFNYTSLIAFHCKRGVSMGTPKLLRTSECDFVFEWETPVVCPDEVRMDGCTLTDEQLLYSFNLSSLSTSTFKVTRDSRTYSVGVCTFAVGPEQGGCKDGGVCLLSGTKGASFGRLQSMKLDYRHQDEAVVLSYVNGDRCPPETDDGVPCVFPFIFNGKSYEECIIESRAKLWCSTTADYDRDHEWGFCRHSNSYRTSSIIFKCDEDEDIGRPQVFSEVRGCDVTFEWKTKVVCP
modifications: biotinylated with BirA enzyme in the Biotin AS domain
notes: The protein was immobilised on a streptavidin chip; also called p1288; HIS-BIOTIN-CI-MPR DOMAINS 10-13
In turn, B1 returned a Kd of 33 nM.

Values taken from patent US20090117091A1 (BIOMARIN PHARMACEUTICAL, published 2009).
